Tests used:
Assay in all cases: Ni-NTA magnetic bead pull-down; EMSA: 50 mM Tris-HCl pH 7.9, 300 mM KOAc, 5 mM MgCl2, 16% glycerol, 10 min 37 C; bead pull-down: 82.5 ng 5e RNA, 0.056-1.8 uM protein, eluted with 250 mM imidazole (binding buffer not given, as in ref 16)
72f = biological target: T1, 72f (human, UniProt O76094 531-587); conditions: protein: recombinant; tags: N-terminal His6; hairpin with 11-nt 5e internal motif (K-turn)
T1 sequence: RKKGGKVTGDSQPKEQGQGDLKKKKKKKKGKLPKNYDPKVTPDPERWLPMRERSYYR

72h 577-WL-578 to AA = biological target: T2, 72h 577-WL-578 to AA (human, UniProt O76094 531-590, W577A;L578A); conditions: protein: recombinant; tags: His6; hairpin with 11-nt 5e internal motif (K-turn)
T2 sequence: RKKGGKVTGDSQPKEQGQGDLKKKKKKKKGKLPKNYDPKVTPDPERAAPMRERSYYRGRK

72h 583-RS-584 to AA = biological target: T3, 72h 583-RS-584 to AA (human, UniProt O76094 531-590, R583A;S584A); conditions: protein: recombinant; tags: His6; hairpin with 11-nt 5e internal motif (K-turn)
T3 sequence: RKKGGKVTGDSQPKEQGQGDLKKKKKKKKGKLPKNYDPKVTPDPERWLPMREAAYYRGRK

72h = biological target: T4, 72h (human, UniProt O76094 531-590); conditions: protein: recombinant; tags: His6; hairpin with 11-nt 5e internal motif (K-turn)
T4 sequence: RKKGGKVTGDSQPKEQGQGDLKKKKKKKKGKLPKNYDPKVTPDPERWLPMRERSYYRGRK

72e = biological target: T5, 72e (human, UniProt O76094 531-617); conditions: protein: recombinant; tags: N-terminal His6; hairpin with 11-nt 5e internal motif (K-turn)
T5 sequence: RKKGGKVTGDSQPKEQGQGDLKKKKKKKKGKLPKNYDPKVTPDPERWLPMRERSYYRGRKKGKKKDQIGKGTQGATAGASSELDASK

72h 589-RK-590 to AA = biological target: T6, 72h 589-RK-590 to AA (human, UniProt O76094 531-590, R589A;K590A); conditions: protein: recombinant; tags: His6; hairpin with 11-nt 5e internal motif (K-turn)
T6 sequence: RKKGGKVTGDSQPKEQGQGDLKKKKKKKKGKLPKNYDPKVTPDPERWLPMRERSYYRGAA

72k = biological target: T7, 72k (human, UniProt O76094 545-590); conditions: protein: recombinant; tags: His6; hairpin with 11-nt 5e internal motif (K-turn)
T7 chain: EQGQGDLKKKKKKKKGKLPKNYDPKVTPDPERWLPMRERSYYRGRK

72j = biological target: T8, 72j (human, UniProt O76094 541-590); conditions: protein: recombinant; tags: His6; hairpin with 11-nt 5e internal motif (K-turn)
T8 chain: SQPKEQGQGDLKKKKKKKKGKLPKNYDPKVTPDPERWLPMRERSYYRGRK

72h 587-RG-588 to AA = biological target: T9, 72h 587-RG-588 to AA (human, UniProt O76094 531-590, R587A;G588A); conditions: protein: recombinant; tags: His6; hairpin with 11-nt 5e internal motif (K-turn)
T9 sequence: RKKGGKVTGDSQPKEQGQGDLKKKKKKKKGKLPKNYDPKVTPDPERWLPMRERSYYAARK

72g = biological target: T10, 72g (human, UniProt O76094 531-585); conditions: protein: recombinant; tags: N-terminal His6; hairpin with 11-nt 5e internal motif (K-turn)
T10 sequence: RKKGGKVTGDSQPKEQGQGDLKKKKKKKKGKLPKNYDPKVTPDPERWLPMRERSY

72h del 555-KK-556 = biological target: T11, 72h del 555-KK-556 (human, UniProt O76094 531-590, del555-556); conditions: protein: recombinant; tags: His6; hairpin with 11-nt 5e internal motif (K-turn)
T11 sequence: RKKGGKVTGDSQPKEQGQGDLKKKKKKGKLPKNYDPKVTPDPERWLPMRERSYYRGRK

72h M580A = biological target: T12, 72h M580A (human, UniProt O76094 531-590, M580A); conditions: protein: recombinant; tags: His6; hairpin with 11-nt 5e internal motif (K-turn)
T12 sequence: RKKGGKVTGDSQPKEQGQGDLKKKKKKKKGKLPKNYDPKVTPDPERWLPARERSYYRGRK

72h 581-RE-582 to AA = biological target: T13, 72h 581-RE-582 to AA (human, UniProt O76094 531-590, R581A;E582A); conditions: protein: recombinant; tags: His6; hairpin with 11-nt 5e internal motif (K-turn)
T13 sequence: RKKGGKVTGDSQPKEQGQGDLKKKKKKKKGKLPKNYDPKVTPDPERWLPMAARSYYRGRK

72h P579A = biological target: T14, 72h P579A (human, UniProt O76094 531-590, P579A); conditions: protein: recombinant; tags: His6; hairpin with 11-nt 5e internal motif (K-turn)
T14 sequence: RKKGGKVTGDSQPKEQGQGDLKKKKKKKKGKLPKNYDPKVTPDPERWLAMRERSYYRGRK

72h 585-YY-586 to AA = biological target: T15, 72h 585-YY-586 to AA (human, UniProt O76094 531-590, Y585A;Y586A); conditions: protein: recombinant; tags: His6; hairpin with 11-nt 5e internal motif (K-turn)
T15 sequence: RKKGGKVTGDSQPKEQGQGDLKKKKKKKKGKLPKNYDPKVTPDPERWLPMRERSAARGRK

72h 579-PM-580 to AA = biological target: T16, 72h 579-PM-580 to AA (human, UniProt O76094 531-590, P579A;M580A); conditions: protein: recombinant; tags: His6; hairpin with 11-nt 5e internal motif (K-turn)
T16 sequence: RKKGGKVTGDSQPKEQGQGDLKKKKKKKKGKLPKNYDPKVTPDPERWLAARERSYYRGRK

GGUCCGGGUGUCCGCACUAGGGAGCUAGUGGGAUCGCGCCUGGAUC (structured_RNA) [5e SRP RNA]
binding result (72f): binds
binding result (72h 577-WL-578 to AA): no binding
binding result (72h 583-RS-584 to AA): no binding
binding result (72h): binds
binding result (72e): binds
binding result (72h 589-RK-590 to AA): binds
binding result (72k): binds
binding result (72j): binds
binding result (72h 587-RG-588 to AA): binds
binding result (72g): no binding
binding signal (72h del 555-KK-556): 46 ± 12 % of wild-type binding
binding signal (72h M580A): 100 ± 4 % of wild-type binding
binding signal (72h 581-RE-582 to AA): 69 ± 14 % of wild-type binding
binding signal (72h P579A): 26 ± 1 % of wild-type binding
binding signal (72h 585-YY-586 to AA): 60 ± 3 % of wild-type binding
binding signal (72h 579-PM-580 to AA): 14 ± 9 % of wild-type binding
